Measurements from patent US20260209348A1 (University of California, published 2026).
Numbering of substitutions follows the chain as printed.

B1: h6E6-007 (antibody, human IgG1, V domains shown)
VH: EVQLVESGGGLVKPGGSLRLSCAASGFTFSGYGLSWVRQAPGKGLEWVSTISSGGGYTHYAPSVKGRFTISRDNAKNSLYLQMNSLRAEDTAVYYCARHPRDFSYAQDYWGQGTTVTVSS
VL: EIVMTQSPATLSVSPGERATLSCKASQDVGHYVAWYQQKPGQAPRLLIYWASTRATGIPARFSGSGSGTEFTLTISSLQSEDFAVYYCQQYNIYPWTFGQGTKVEIK
notes: human IgG1; also called clone 7
B2: h6E6-040 (antibody, human IgG1, V domains shown)
VH: B1 VH with G31S, L34H, Q107H
VL: B1 VL with K24R
notes: human IgG1; also called clone 40
B3: h6E6-055 (antibody, human IgG1, V domains shown)
VH: B1 VH with G31Q, L34H, P62E
VL: B1 VL with V33L
notes: human IgG1; also called clone 55
B4: h6E6-070 (antibody, human IgG1, V domains shown)
VH: B1 VH with G31Q, L34H, P62H, Q107N
VL: B1 VL with K24R, V33L
notes: human IgG1; Alexa647 conjugate in flow cytometry; also called clone 70
B5: h6E6-057 (antibody, human IgG1, V domains shown)
VH: B1 VH with G31H, L34V, A61V, P62A, Q107L
VL: B1 VL with T97A
notes: human IgG1; also called clone 57
B6: h6E6-068 (antibody, human IgG1, V domains shown)
VH: B1 VH with G31S, L34I, P62H, Q107L
VL: B1 VL with V33L
notes: human IgG1; also called clone 68
B7: h6E6-107 (antibody, human IgG1, V domains shown)
VH: B1 VH with G31T, L34A, Q107L
VL: B1 VL
notes: human IgG1; also called clone 107
B8: h6E6-102 (antibody, human IgG1, V domains shown)
VH: B1 VH with G31K, A61V, P62E, Q107S
VL: B1 VL
notes: human IgG1; also called clone 102
B9: h6E6-077 (antibody, human IgG1, V domains shown)
VH: B1 VH with G31H, L34T, Q107I
VL: B1 VL
notes: human IgG1; also called clone 77
B10: h6E6-066 (antibody, human IgG1, V domains shown)
VH: B1 VH with G31A, L34S, Q107H
VL: B1 VL with A55H
notes: human IgG1; also called clone 66
B11: h6E6-116 (antibody, human IgG1, V domains shown)
VH: B1 VH with G31T, L34V, P62G, Q107L
VL: B1 VL with K24R, V33L
notes: human IgG1; Alexa647 conjugate in flow cytometry
B12: h6E6-063 (antibody, human IgG1, V domains shown)
VH: B1 VH with G31A, L34T, H59Y, P62A, Q107I
VL: B1 VL with K24R, V33L
notes: human IgG1; also called clone 63
B13: h6E6-072 (antibody, human IgG1, V domains shown)
VH: B1 VH with G31Q, L34H, P62D
VL: B1 VL with V33L, A55H
notes: human IgG1; also called clone 72
B14: h6E6-056 (antibody, human IgG1, V domains shown)
VH: B1 VH with G31K, L34T
VL: B1 VL with K24R
notes: human IgG1; also called clone 56
B15: h6E6-058 (antibody, human IgG1, V domains shown)
VH: B1 VH with G31V, H59Q, Q107F
VL: B1 VL with V33L
notes: human IgG1; also called clone 58
B16: h6E6-029 (antibody, human IgG1, V domains shown)
VH: B1 VH with G31H, L34V, P62Q
VL: B1 VL with A55H
notes: human IgG1; also called clone 29
B17: grafted humanized 6E6: VH3-11*03 (IMGT) + VK1-8*01 (IMGT) (antibody, V domains shown)
VH: B1 VH with E1Q, V5L, G31N, L34M, V37I, T50Y, H59N, P62D, Q107M
VL: AIRMTQSPSSFSASTGDRVTITCRASQDVGHYLAWYQQKPGKAPKLLIYWASTLQSGVPSRFSGSGSGTDFTLTISCLQSEDFATYYCQQYNIYPWTFGQGTKVEIK
notes: expressed as IgG
B18: grafted humanized 6E6: VH3-11*03 (extended) + VK3-15*01 (IMGT) (antibody, V domains shown)
VH: B1 VH with E1Q, V5L, G31N, L34M, V37I, A61V, P62D, Q107M
VL: B1 VL with K24R, V33L
notes: expressed as IgG
B19: grafted humanized 6E6: VH3-11*03 (IMGT) + VK3-15*01 (IMGT) (antibody, V domains shown)
VH: B1 VH with E1Q, V5L, G31N, L34M, V37I, T50Y, H59N, P62D, Q107M
VL: B1 VL with K24R, V33L
notes: expressed as IgG
B20: grafted humanized 6E6: VH3-21*01 (extended) + VK3-15*01 (IMGT) (antibody, V domains shown)
VH: B1 VH with G31N, L34M, A61V, P62D, Q107M
VL: B1 VL with K24R, V33L
notes: expressed as IgG
B21: grafted humanized 6E6: VH3-21*01 (IMGT) + VK3-15*01 (IMGT) (antibody, V domains shown)
VH: B1 VH with G31N, L34M, S35N, T50S, H59Y, P62D, Q107M
VL: B1 VL with K24R, V33L
notes: expressed as IgG
B22: h6E6-116 anti-human ROR2 chimeric antigen receptor (other, not shown: small tags and cut ends)
chain: EVQLVESGGGLVKPGGSLRLSCAASGFTFSTYGVSWVRQAPGKGLEWVSTISSGGGYTHYAGSVKGRFTISRDNAKNSLYLQMNSLRAEDTAVYYCARHPRDFSYALDYWGQGTTVTVSSEIVMTQSPATLSVSPGERATLSCRASQDVGHYLAWYQQKPGQAPRLLIYWASTRATGIPARFSGSGSGTEFTLTISSLQSEDFAVYYCQQYNIYPWTFGQGTKVEIK
notes: Expressed on transfected Jurkat cells

target: T1, human ROR2 (human, UniProt Q01974 34-403, limits assumed); assay: SPR
Procedure, shortened: (§1)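 Humanized anti-human ROR2 monoclonal antibodies were tested for binding to human ROR2 by surface plasmon resonance. The antibodies were made by grafting murine complementarity-determining regions into human acceptor frameworks, with the constant region converted to human IgG1. Binding affinity is reported as the dissociation constant (Kd) in nM. Antigen format, concentrations, temperature, buffer and replicates are not stated.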

T1 sequence (Q01974 34-403 limits assumed): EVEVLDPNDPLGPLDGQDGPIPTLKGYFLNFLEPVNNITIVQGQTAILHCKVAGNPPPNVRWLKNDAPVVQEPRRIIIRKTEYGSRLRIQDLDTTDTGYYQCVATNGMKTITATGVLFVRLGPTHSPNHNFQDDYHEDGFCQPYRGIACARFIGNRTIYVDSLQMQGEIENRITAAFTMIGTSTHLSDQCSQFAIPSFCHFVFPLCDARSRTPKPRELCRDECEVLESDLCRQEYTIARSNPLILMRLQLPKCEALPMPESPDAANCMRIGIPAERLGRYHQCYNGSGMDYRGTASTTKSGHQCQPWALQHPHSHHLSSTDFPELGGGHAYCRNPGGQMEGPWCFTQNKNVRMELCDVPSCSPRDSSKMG

Binder	Kd [nM]
B1	0.318
B2	0.186
B3	0.261
B4	0.165
B5	0.463
B6	0.362
B7	0.422
B8	0.319
B9	0.155
B10	0.353
B11	0.348
B12	0.475
B13	0.38
B14	0.024
B15	0.187
B16	0.079

target: T1, human ROR2; assay: SPR; remark: another data set of the same source

Binder	binding result	Kd [nM]
B17	no binding	
B18		1.1
B19		64
B20		0.58
B21	no binding	

target: T1, human ROR2; assay: SPR; remark: another data set of the same source
Procedure, shortened: as §1

Binder	Kd [nM]
B1	0.318
B2	0.186
B3	0.261
B4	0.165
B5	0.463
B6	0.362
B7	0.422
B8	0.319
B9	0.155
B10	0.353
B11	0.348
B12	0.475
B13	0.38
B14	0.024
B15	0.187
B16	0.079

target: T2, recombinant ROR1 (Homo sapiens (Human), UniProt Q01973 30-406); assay: dot blot on nylon membrane, anti-human IgG-HRP
T2 sequence (Q01973 30-406 limits assumed): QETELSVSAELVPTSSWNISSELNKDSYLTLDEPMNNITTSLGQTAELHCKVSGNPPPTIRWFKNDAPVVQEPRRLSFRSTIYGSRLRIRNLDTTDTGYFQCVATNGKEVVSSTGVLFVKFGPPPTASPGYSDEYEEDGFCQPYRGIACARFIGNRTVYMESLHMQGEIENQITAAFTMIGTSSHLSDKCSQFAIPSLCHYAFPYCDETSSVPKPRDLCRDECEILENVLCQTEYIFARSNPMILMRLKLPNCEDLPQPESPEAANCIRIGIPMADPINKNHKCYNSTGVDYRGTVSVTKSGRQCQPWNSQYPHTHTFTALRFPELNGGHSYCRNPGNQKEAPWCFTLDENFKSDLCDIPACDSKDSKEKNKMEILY

Binder	binding result
B1	no binding
B2	no binding
B3	no binding
B4	no binding
B5	no binding
B6	no binding
B7	no binding
B8	no binding
B9	no binding
B10	no binding
B11	no binding
B13	no binding
B14	no binding
B16	no binding

target: T3, recombinant mouse ROR2 (extracellular portion) (mouse, UniProt Q9Z138 34-403); assay: dot blot on nylon membrane, anti-human IgG-HRP
T3 construct: also called mROR2
T3 sequence (Q9Z138 other isoform, or with tags, fused parts or gaps limits assumed): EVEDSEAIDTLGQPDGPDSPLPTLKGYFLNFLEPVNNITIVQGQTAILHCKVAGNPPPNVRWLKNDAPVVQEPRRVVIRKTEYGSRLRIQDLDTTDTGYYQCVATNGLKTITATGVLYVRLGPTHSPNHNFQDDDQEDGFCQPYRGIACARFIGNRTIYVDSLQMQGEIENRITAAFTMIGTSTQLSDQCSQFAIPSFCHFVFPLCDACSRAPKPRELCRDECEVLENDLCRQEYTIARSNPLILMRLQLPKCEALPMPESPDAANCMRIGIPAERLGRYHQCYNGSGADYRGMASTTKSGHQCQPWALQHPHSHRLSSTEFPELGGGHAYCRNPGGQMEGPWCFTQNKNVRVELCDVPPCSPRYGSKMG

Binder	binding result
B1	no binding
B2	no binding
B3	no binding
B5	no binding
B6	no binding
B7	no binding
B8	no binding
B9	no binding
B10	no binding
B11	no binding
B13	no binding
B14	no binding
B16	no binding

target: T4, recombinant human ROR2 H349R (human, UniProt Q01974 34-403); assay: dot blot on nylon membrane, anti-human IgG-HRP
T4 construct: Human residue replaced with the mouse residue
T4 sequence (Q01974 34-403 H349R limits assumed): as the sequence (Q01974 34-403 limits assumed) above, with H316R counted along it

Binder	binding result
B1	no binding
B2	no binding
B3	no binding
B4	no binding
B5	no binding
B6	no binding
B7	no binding
B8	no binding
B9	no binding
B10	no binding
B11	no binding
B13	no binding
B14	no binding
B16	no binding

target: T5, recombinant human ROR2 D354E (human, UniProt Q01974 34-403); assay: dot blot on nylon membrane, anti-human IgG-HRP
T5 sequence (Q01974 34-403 D354E limits assumed): as the sequence (Q01974 34-403 limits assumed) above, with D321E counted along it

Binder	binding result
B1	no binding
B2	no binding
B3	no binding
B4	no binding
B5	no binding
B6	no binding
B7	no binding
B8	no binding
B9	no binding
B10	no binding
B11	no binding
B13	no binding
B14	no binding
B16	no binding

target: T2, recombinant ROR1; assay: dot blot of arrayed recombinant proteins (key on the sheet)

Binder	binding result
B12	no binding
B15	no binding

target: T3, recombinant mouse ROR2 (extracellular …); assay: as above

Binder	binding result
B4	no binding
B12	no binding
B15	no binding

target: T4, recombinant human ROR2 H349R; assay: as above

Binder	binding result
B12	no binding
B15	no binding

target: T5, recombinant human ROR2 D354E; assay: as above

Binder	binding result
B12	no binding
B15	no binding

target: T6, ROR1-Ig (human, UniProt Q01973 30-406); assay: flow cytometry, ROR1-Ig then anti-human IgG-PE, Jurkat cells transfected with the CAR
T6 construct: extracellular domain; also called control ROR1-Ig; not shown: CH2-CH3 constant region domains of human IgG1 (same human IgG domains as ROR2-Ig)
Protocol: All cells were assessed after 48 hours by flow cytometry for binding of recombinant human ROR2-Ig protein comprised of the ROR2 extracellular domain and the CH2-CH3 constant region domains of human IgG1. Cells were stained on ice for 20 minutes with 1 μg/ml of recombinant ROR2-Ig (upper panel) or 1 μg/ml of control ROR1-Ig (lower panel). washed, stained for an additional 20 minutes on ice with phycoerythrin (PE)-conjugated anti-human IgG1 antibody, washed and analyzed by flow cytometry. Shaded histograms depict the relative fluorescence intensity (x axis) of viable cells, as determined by light scatter characteristics, stained with either ROR2-Ig or ROR1-Ig compared to cells stained with the anti-human IgG1-PE antibody only (open histograms). […] Conversely, ROR1 CAR transfected cells bind only to ROR1-Ig.

T6 sequence (Q01973 30-406): as the sequence (Q01973 30-406 limits assumed) above

Binder	binding result
B22	no binding (tested: 1 ug/ml)
